Measurements reported in the supplement of paper PMC9170038.

System: K4 kissing-loop RNA reporter
Experiment: apparent KD of K4 kissing-loop reporter; higher = weaker reporter binding
Settings: Eterna round: R107
Protocol: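 RNA-MaP round R107: designed RNA switches with theophylline, tryptophan, arginine or FMN aptamers are transcribed on-chip within common flanks. They are titrated with a labelled K4 kissing-loop RNA reporter in RNA-MaP buffer (100 mM Tris pH 7.5, 80 mM KCl, 4 mM MgCl2), without ligand or with the indicated ligand. Median apparent KD per design.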

[1] = input ligand: theophylline 20 uM
[2] = input ligand: tryptophan 2.4 mM
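Further: bound reporter read as fluorescence of individual clusters on recovered sequencing chips by microscopy, with normalized cluster intensities fitted with a binding model.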

| Sequence | apparent KD of K4 kissing-loop reporter (input ligand: FMN 200 uM) [nM] | apparent KD of K4 kissing-loop reporter (input ligand: arginine 13.2 mM) [nM] | apparent KD of K4 kissing-loop reporter (input ligand: none) [nM] | apparent KD of K4 kissing-loop reporter [1] [nM] | apparent KD of K4 kissing-loop reporter [2] [nM] |
| --- | --- | --- | --- | --- | --- |
| AAAUUUUAAAGUGAUACCAGACAUCUCAAUUACAUUAAUAAAGCUAAGUGAUGUUUAGCAGUCCCUUGGCAGCACAAUUUAAUUA [JR_SSTheophyB_Sub011] | 272 | 334 | 334 | 447 | 281 |
| AACCCAUGACUGGAUACCAGACUAUACAUGCUGAGUGAUGUUUAGCGGAGUCAUCUCUCGGUCCCUUGGCAGCCAACGUCACGCG [theeternabot_sameState_KL_Theo_B_33] | 614 | 334 | 646 | 403 | 373 |
| AACCGAGGUAAUCCACAAAGAUAACAUGAUACCAGAUAUAUAAAUAUCCCUUGGCAGCAUGGCAUGAGUGAUGUUCAUGUGUCUU [KL-SSTheo-A10] | 441 | 325 | 460 | 269 | 356 |
| AACGUUUUGAGAAGGAGCGCGUUCAGCAGUGAUGUUGCUUUACUUCAAUUUCUAGAUAAUUCGCAGGUAGGUCGCUCAAUACGUA [JR_Nu_ExcArginiB_Sub023] | 503 | 511 | 615 | 706 | 527 |
| AACUUGUUUGGAGGAUAUUCUUUAUUCGACAUAACCUUCUAUAAGGUGCAGUGAUGUUGCAAUAUAGGAGAAGGUCGAGUGAGAA [Exclusion FMN B Gf 16] | 207 | 169 | 206 | 219 | 186 |
| AAGACUGCAGGAAGGAGCGGCGGACGGAGUGAUGUUCCGGCUAGUGAUGUUAGCAAACACCGCCAGGUAGGUCGCCUGUUGCUCU [Same State Arginine B GF7] | 113 | 116 | 126 | 166 | 128 |
| AAGCAGUCACUCGUAUCCAUCGAAGAUGGUCGAGGACCGGUACGGCCGCCACUCGGAGUGAUGUUCCGAAGACUGCAAAAUAAAA [#SwitchBubble 13] | 240 | 230 | 250 | 296 | 348 |
| AAGCAUUCUUCGGAAUGCAGACCCGCUGAGGAGGAUAUGACGAAAGUCAGAAGGCCUCAGUGAUGUUGAGGCCUCCUCAAUGGUC [Omei KL FMN A Exc A v1] | 138 | 135 | 187 | 173 | 171 |
| AAGGCCACGAGAAGGAGCGUGUUGUGGAGUGAUGUUCCACUGUAGACCUAAGGUCUACAGGCACAGGUAGGUCGCUCGUGGUCAA [Omei KL Arginine B SS A v6] | 131 | 110 | 145 | 131 | 127 |
| AAGGUAUCACCAACAUUGCAAGAAGGUGAUACCAGCAUCGAAAGAUGCCCUUGGCAGCACCAACUUGCAGUGAUGUUGCAAGUAA [(T)'-(H)'-(T1)-(T2)-(H1)-(H2)_Design8] | 274 | 210 | 267 | 213 | 226 |
| AAGUAGCUCUCGGCCGCCACUCCUCAGUGAUGUUGAGAUAUUAAUUGCCAAUUGGCGUAUUUAAAGAGGACCGGGAGAGCUACAA [AK3 SS Tryptophan B] | 368 | 315 | 378 | 328 | 117 |
| AAGUCAUAGGCAGGAUAUGCAUUGUAAUAAGGCAAUAUAUACGUAUAGAGUGAUGUUUUGUACCAGGCAGAAGGGCUACAUCAGU [FMN B Excl V10 (+5A/U)] | 674 | 383 | 652 | 491 | 416 |
| AAGUGAUGUUGUAGUGAUGUUGUGAUGUUGCAGGAUAUAUAGUGAUGUAGAAGGGUAAGUACUGAUGUUGUUUGUGAGUGAUGUU [zrrszrmullin] | 99.2 | 44.9 | 78.6 | 66.9 | 76.2 |
| AAGUGAUGUUGUAGUGAUGUUGUGAUGUUGCAGGAUAUAUAGUGAUGUAGAAGGGUAUGUGCAGUGUUGUUAUUUGAGUGUUGAU [zffdmullin] | 89.7 | 41.4 | 78.7 | 73.8 | 66.9 |
| AAGUGUCAUUAGACACAGACUACAAUACACUAGGAUAUGCUGAUAAGCAGAAGGAGUGAUGUUCCUUUCAAGUAGUCAAUUAAAU [FmnAX 21 Mat Inspired #SwitchBubble #StaticStem #K4Late] | 237 | 148 | 143 | 178 | 140 |
| AAGUGUCAUUAGACACAGACUACAAUACGCUAGGAUAUGCUGAUAAGCAGAAGGAGUGAUGUUCCUUUCAAGUAGUCAAUUAAAU [FmnAX 22 Mat Inspired #SwitchBubble #StaticStem #K4Late] | 319 | 140 | 136 | 166 | 124 |
| AAGUGUGUGGCGGCCGCCACUAGAAUCCAGUGAUGUUGGAGAUAUCACGUAAGUGAUAUCCAACAUAGGACCGGGCCAUAUAGAA [Same State - Tryptophan B (Freestyle 12)] | 142 | 111 | 80.3 | 210 | 95.5 |
| AAGUUGAACUGAAGGAGCGAGAAAUAGAAUGUAAGAAUAUAUGCUAGUGAUGUUAGAAAUUCUCAGGUAGGUCGCAGUAAGUUUU [V2] | 363 | 418 | 474 | 407 | 285 |
| AAUAAAAGAUGUUUAGGAAAGCAAAUGGAAGGAGCGUGCGAAAGCACAGGUAGGUCGCCAGUGAUGUUGGCACCUGAGCAUCAAA [#SwitchBubble 18 #K4Late] | 251 | 285 | 303 | 336 | 264 |
| AAUAAAAUCACGGCCGCCACUGAAUAAUUACGAAGUAGUGAUGUUACUUCACAUAUCUUAUUUAACAGGACCGGGUGAAUAUUUA [#16 K4 Tryptophan B Exclusion] | 72.3 | 66.3 | 70.9 | 65.1 | 81.8 |
| AAUAACUAGUAUAUUUUUAAUAAUACAGAUACCAGUGAUAAUAAACACCCUUGGCAGCUGAUCGAGUGAUGUUCGUUUAUUUUAA [JR_SSTheophyA_Sub002] | 84 | 74.6 | 93.3 | 188 | 66.2 |

| Sequence | apparent KD of K4 kissing-loop reporter (input ligand: FMN 200 uM) [nM] | apparent KD of K4 kissing-loop reporter (input ligand: arginine 13.2 mM) [nM] | apparent KD of K4 kissing-loop reporter (input ligand: none) [nM] | apparent KD of K4 kissing-loop reporter [1] [nM] | apparent KD of K4 kissing-loop reporter [2] [nM] |
| --- | --- | --- | --- | --- | --- |
| AAUAAGCGCCGAAGGAGCGGCCUCCGAGUGAUGUUCGGUGAGAUGCCAGUGAUGUUGGCCGGCCAGGUAGGUCGCGGCAAAGCUU [Same State Arginine B GF 29] | 154 | 140 | 161 | 131 | 128 |
| AAUAAGUGUCAGCGAGUGAUGUUCGACGAUACCAGCCUCGAUAGAGGCCCUUGGCAGCGUAACGCAUGCCAAACUGGCACAAUAA [#SwitchBubble 7 #K4Early] | 500 | 497 | 557 | 393 | 441 |
| AAUAUAGUGAUGUUAUAUAAGAAGGAGUUACGAGGACCGGUACGGCCGCCACUCGAAACGAGUGAGGAUUUGGGAGAUUGGGUCC [SSTryptA.K] | 300 | 366 | 430 | 384 | 299 |
| AAUGCGCAGGGAAGGAGCGCCGUCCAGUGAUGUUGGAGUUAAAUACCAGUGAUGUUGGUUAGGCAGGUAGGUCGCCCUAAAGCGC [Exclusion Arginine B GF 1] | 118 | 79.9 | 92.1 | 98 | 83.8 |
| AAUGGGUGAUAAGGAUAUCCACCUCACAAACCAAGAGUGAUGUUCGUUGGUCCAUGGACAAUAUGUGGAGAAGGUAUAGUGAUUA [theeternabot_exclusion_KL_FMN_B_48] | 855 | 853 | 1000 | 747 | 700 |
| AAUGUACAGGGAAGGAGCGCCGUCCAGUGAUGUUGGAGUUAAAUACCAGUGAUGUUGGUUAGGCAGGUAGGUCGCCCUAUAGUAU [#07 K4 Arginine B Exclusion] | 126 | 92.9 | 117 | 134 | 108 |
| AAUGUAUGGCACAUGAGUGAUGUUCAUGUCCGAGGACCGGUACGGCCGCCACUCGGUCCUGGGUUCUUAUUACUAUACAUUAAUG [KL-XTryp-A2 #analogue] | 161 | 133 | 149 | 169 | 289 |
| AAUGUAUUCCACAUGAGUGAUGUUCAUGUGCGAGGACCGGUACGGCCGCCACUCGCAGUUGUGAUCAGUUCUGAAUACAUUAAUG [KL-XTryp-A3] | 229 | 225 | 219 | 235 | 331 |
| AAUGUGCAGGGAAGGAGCGUAGUCCAGUGCUGUUGGAGUUAGAUACCAGUGAUGUUGGUUAUACAGGUAGGUCGCCCUAAAGCGC [whbob_Ex_Arginine_B_2th161] | 139 | 154 | 140 | 161 | 130 |
| AAUUAAUGUAUAGAUUAUAUACAUUAAUCAGAGGAUAUGCAUUGUUGCAGAAGGCUGAAUGCAGUGAUGUUGCAAUGGAAAUUUA [JR_SSFMNA_Sub004] | 53.8 | 201 | 181 | 376 | 120 |
| AAUUGGGACGAAGGAUAUUGUCGGCCAUGUACGAGGUCCGGAUGUCAUGACUGUUAGUGAUGUUAACAAGAAGGUCGAGGGAGAC [theeternabot_exclusion_KL_FMN_B_25] | 87 | 107 | 103 | 119 | 86.3 |
| AAUUUACAAUAAUCAUUUAAAGGAUCAGAAGGAGCGUGAAAUAACACAGGUAGGUCGCUGAGCGAGUGAUGUUCGCUAUAUACAA [JR_ExcArginiA_Sub001] | 52.3 | 68.7 | 68.8 | 85.9 | 50.1 |
| ACACUUUACGUAGGAUAUGCGACGAGUGAUGUUCGUCAGGCGGCUUUAGCUUAAUCAGGCCGCCUAGCAGAAGGACGGGCAGUGU [Zaretiesre] | 142 | 149 | 199 | 195 | 181 |
| ACAGCGAGCAUUAACGCGCUCGCAGGUUGCAAGGAUAUAUUUCGUCAUAGAAGGUGCUAGACCAUAAGUGAUGUUUGUGGAUAUA [theeternabot_sameState_KL_FMN_A_16] | 576 | 396 | 503 | 448 | 525 |
| ACAGGAUCGAAAGAUCCUGAGCAGUCAAACCGAGGACCGGUACGGCCGCCACUCGGAGUGAUGUUCCGAAGACUGCAAAAUAAAA [#SwitchBubble 1] | 539 | 707 | 1120 | 406 | 334 |
| ACCCAAGCCCAUCGCGCAGUGAUGUUGUCGCGAGGACCGGUACGGCCGCCACUCGAUAGCAGUGGCAACGUCAUCAUAAUCGAUU [theeternabot_exclusion_KL_Trp_A_50] | 340 | 310 | 352 | 299 | 563 |
| ACCUACGAUCACAAUAGUGAUUGUAGGAACUAGGAUAUGCUGAAAAGCAGAAGGAGUGAUGUUCCAACUCAUGAAUAACAUGAGA [FmnAX 2 #OpenEnded #K4Late] | 536 | 252 | 249 | 274 | 198 |
| ACGUAGUUCUAGGAUACCAGCCAAGGCGCAGGACAAAAGUCCUGCGUCGCCAGUGAUGUUGGCCCUUGGCAGCCUAGAACUACGA [Omei KL Theo B Exc B v12] | 334 | 302 | 304 | 364 | 308 |
| ACGUCUUGUAAACUCGUGGUUUCGAUCGAUACCAGUAGCGAGAGUUACCCUUGGCAGCGACAUGAGUGAUGUUCAUGUACGAAGA [KL-XTheoA3] | 98.6 | 87.9 | 92.9 | 89 | 90.7 |
| ACGUGCACCAGUGAUGUUGGAAAAUAUGAAGGAGCGGGUGAAAACCCAGGUAGGUCGCAUAAUAGCACGAGCCACGAAAGUGGCA | 125 | 138 | 157 | 128 | 122 |
| ACGUGCACUAGUGAUGUUAGAAAAUACGAAGGAGCGGGCGAAAGCCCAGGUAGGUCGCGUAAUAGCACGAGCCACGAAAGUGGCA | 254 | 271 | 325 | 447 | 248 |
